Here are results for 1 substance from article PMC4066409.

Series [1] concerns NZF-1-F2F3 H515Q. Kind of series: fluorescence anisotropy. The note with it: not given in the material (ESI).
For series [2], the system named is NZF-1-F2F3 H559Q. Put plainly: fluorescence anisotropy. To be noted: not given in the material (ESI). On the technique in general: Fluorescence polarisation rises when a labelled molecule tumbles more slowly, as on binding a larger partner.

Broadly, the Kd is the equilibrium constant for the complex coming apart. As for βRAR DNA, the dissociation constant Kd in series [1] was 3 µM; in series [2], 3.7 µM.
